Patent publication US20240148894A1, “USE OF ANTIBODY-DRUG CONJUGATE TARGETING HER2 IN TREATMENT OF SPECIFIC BREAST CANCER” (priority 2021, published 2024)
Where “and” joins values, the source holds several entries; their conditions need not be identical. Equal values may be shown once. Entries after “also recorded” stand apart in the source; their conditions may differ.

Tested on: HER2-positive (IHC 3+ or FISH +) locally advanced or metastatic breast cancer
Test: Parallel-group, randomized, open-label clinical trial; progression-free survival (PFS), ITT and metastatic-site subgroup analyses
Format: in vivo, human
Protocol: This study was a parallel-group, randomized, open-label clinical trial to evaluate the efficacy and safety of Disitamab vedotin as compared to treatment with lapatinib and capecitabine in patients with HER2-positive (positive being defined as IHC 3+ or FISH +) locally advanced or metastatic breast cancer. Subjects were randomized 1:1.
The primary endpoint indicator of the study was PFS (progression-free survival), which was evaluated for 6 weeks (±7 days).
Disitamab vedotin, namely RC48-ADC (average DAR value: 4±0.5), was administered at a dose of 2.0 mg/kg via intravenous drip, once every 2 weeks, 42 days as one treatment cycle.

[1] = overall ITT, RC48-ADC relative to capecitabine+lapatinib

B1: Disitamab vedotin (conjugate, chains of the INN, looked up)
VH: EVQLVQSGAEVKKPGATVKISCKVSGYTFTDYYIHWVQQAPGKGLEWMGRVNPDHGDSYYNQKFKDKATITADKSTDTAYMELSSLRSEDTAVYFCARNYLFDHWGQGTLVTVSS
VL: DIQMTQSPSSVSASVGDRVTITCKASQDVGTAVAWYQQKPGKAPKLLIYWASIRHTGVPSRFSGSGSGTDFTLTISSLQPEDFATYYCHQFATYTFGGGTKVEIK
modifications: vedotin (MMAE) payload
Bone metastasis: No (N=63 vs 68), ITT
  Disease progression or death, %: 63.5%
Bone metastasis: No, ITT
  Censoring, %: 36.5%
Bone metastasis: No, ITT, Kaplan-Meier
  Progression-free survival time, Median (95% CI): 9.6 months and 9.6 (6.9, 13.1) months
Bone metastasis: No, RC48-ADC relative to capecitabine+lapatinib
  COX proportional hazards model (without considering stratification factors) Hazard ratio (95% CI): 0.76 (0.50, 1.15)
Bone metastasis: Yes (N=36 vs 33), ITT
  Disease progression or death, %: 77.8%
Bone metastasis: Yes, ITT
  Censoring, %: 22.2%
Bone metastasis: Yes, ITT, Kaplan-Meier
  Progression-free survival time, Median (95% CI): 7.8 months and 7.8 (2.8, 12.4) months
Bone metastasis: Yes, RC48-ADC relative to capecitabine+lapatinib
  COX proportional hazards model (without considering stratification factors) Hazard ratio (95% CI): 0.95 (0.56, 1.61)
Liver metastasis: No (N=61 vs 58), ITT
  Disease progression or death, %: 75.4%
Liver metastasis: No, ITT
  Censoring, %: 24.6%
Liver metastasis: No, ITT, Kaplan-Meier
  Progression-free survival time, Median (95% CI): 7.0 months and 7.0 (5.5, 9.9) months
Liver metastasis: No, RC48-ADC relative to capecitabine+lapatinib
  COX proportional hazards model (without considering stratification factors) Hazard ratio (95% CI): 1.26 (0.83, 1.91)
Liver metastasis: Yes (N=38 vs 43), ITT
  Disease progression or death, %: 57.9%
Liver metastasis: Yes, ITT
  Censoring, %: 42.1%
Liver metastasis: Yes, ITT, Kaplan-Meier
  Progression-free survival time, Median (95% CI): 12.5 months and 12.5 (7.1, 14.1) months
Liver metastasis: Yes, RC48-ADC relative to capecitabine+lapatinib
  COX proportional hazards model (without considering stratification factors) Hazard ratio (95% CI): 0.41 (0.24, 0.71)
Lung metastasis: No (N=55 vs 49), ITT
  Disease progression or death, %: 61.8%
Lung metastasis: No, ITT
  Censoring, %: 38.2%
Lung metastasis: No, ITT, Kaplan-Meier
  Progression-free survival time, Median (95% CI): 10.9 months and 10.9 (5.7, 13.7) months
Lung metastasis: No, RC48-ADC relative to capecitabine+lapatinib
  COX proportional hazards model (without considering stratification factors) Hazard ratio (95% CI): 0.68 (0.42, 1.07)
Lung metastasis: Yes (N=44 vs 52), ITT
  Disease progression or death, %: 77.3%
Lung metastasis: Yes, ITT
  Censoring, %: 22.7%
Lung metastasis: Yes, ITT, Kaplan-Meier
  Progression-free survival time, Median (95% CI): 8.2 months and 8.2 (5.6, 12.2) months
Lung metastasis: Yes, RC48-ADC relative to capecitabine+lapatinib
  COX proportional hazards model (without considering stratification factors) Hazard ratio (95% CI): 1.05 (0.67, 1.65)
Viscera metastasis (CRF): No (N=22 vs 23), ITT
  Disease progression or death, %: 68.2%
Viscera metastasis (CRF): No, ITT
  Censoring, %: 31.8%
Viscera metastasis (CRF): No, ITT, Kaplan-Meier
  Progression-free survival time, Median (95% CI): 9.6 months and 9.6 (4.3, 14.2) months
Viscera metastasis (CRF): Yes (N=77 vs 78), ITT
  Disease progression or death, %: 68.8%
Viscera metastasis (CRF): Yes, ITT
  Censoring, %: 31.2%
Viscera metastasis (CRF): Yes, ITT, Kaplan-Meier
  Progression-free survival time, Median (95% CI): 9.3 months and 9.3 (6.9, 12.2) months
Viscera metastasis: No (as printed in Table 7), vs capecitabine+lapatinib
  relative risk reduction of disease progression or death: 24% chance of
Viscera metastasis: No, RC48-ADC relative to capecitabine+lapatinib
  COX proportional hazards model (without considering stratification factors) Hazard ratio (95% CI): 1.02 (0.51, 2.05)
Viscera metastasis: Yes, RC48-ADC relative to capecitabine+lapatinib
  COX proportional hazards model (without considering stratification factors) Hazard ratio (95% CI): 0.76 (0.53, 1.10)
[1]
  COX proportional hazards model (considering stratification factors) Hazard ratio (95% CI): 0.82 (0.59, 1.13)
  COX proportional hazards model (without considering stratification factors) Hazard ratio (95% CI): 0.82 (0.60, 1.14)
Overall sample of breast cancer patients
  PFS comparison with control group, in words: did not show a statistically significant advantage
overall, ITT analysis set
  Censoring, %: 31.3%
overall, ITT analysis set (N=99 vs 101)
  Disease progression or death, %: 68.7%
overall, ITT analysis set, Kaplan-Meier
  Progression-free survival, Median (95% CI): 9.3 months and 9.3 (6.9, 12.2) months
Patients with bone metastasis
  PFS comparison with control group, in words: no very significant difference; also recorded: no statistically significant difference
Patients with liver metastasis, vs capecitabine+lapatinib
  median progression-free survival time longer than control treatment group by: 6.9 months
Patients with lung metastasis
  PFS comparison with control group, in words: no significant difference
  progression-free survival time shorter than capecitabine+lapatinib by: 0.1 months
Patients with viscera metastasis
  PFS comparison with control group, in words: did not show statistical differences; also recorded: no statistically significant difference
Patients with viscera metastasis, vs lapatinib+capecitabine
  median progression-free survival time longer than control treatment group by: 2.4 months
Patients without bone metastasis
  PFS comparison with control group, in words: did not show a statistically significant advantage; also recorded: no very significant difference; also recorded: no statistically significant difference
Patients without bone metastasis, vs capecitabine+lapatinib
  relative risk reduction of disease progression or death: 24% chance of
Patients without bone metastasis, vs lapatinib+capecitabine
  median progression-free survival time longer than control treatment group by: 1.6 months
Patients without liver metastasis, vs capecitabine+lapatinib
  median progression-free survival time shorter than control treatment group by: 2.0 months
Patients without lung metastasis, vs capecitabine+lapatinib
  median progression-free survival time longer than control treatment group by: 5.3 months
Patients without viscera metastasis
  PFS comparison with control group, in words: did not show a statistically significant advantage; also recorded: no statistical difference; also recorded: no statistically significant difference
Patients without viscera metastasis, vs lapatinib+capecitabine
  median progression-free survival time longer than control treatment group by: 1.5 months
